Response data for 2 substances are collected here from article PMC3665890.

In the test the target is FITC-conjugated Mouse transferrin (UniProt Q921I1). As to the kind of experiment: flow cytometry on cells. Conditions: read off a plot. Background: A flow cytometer gives signals particle by particle.
UniProt Q921I1, sequence (Q921I1 whole entry, looked up): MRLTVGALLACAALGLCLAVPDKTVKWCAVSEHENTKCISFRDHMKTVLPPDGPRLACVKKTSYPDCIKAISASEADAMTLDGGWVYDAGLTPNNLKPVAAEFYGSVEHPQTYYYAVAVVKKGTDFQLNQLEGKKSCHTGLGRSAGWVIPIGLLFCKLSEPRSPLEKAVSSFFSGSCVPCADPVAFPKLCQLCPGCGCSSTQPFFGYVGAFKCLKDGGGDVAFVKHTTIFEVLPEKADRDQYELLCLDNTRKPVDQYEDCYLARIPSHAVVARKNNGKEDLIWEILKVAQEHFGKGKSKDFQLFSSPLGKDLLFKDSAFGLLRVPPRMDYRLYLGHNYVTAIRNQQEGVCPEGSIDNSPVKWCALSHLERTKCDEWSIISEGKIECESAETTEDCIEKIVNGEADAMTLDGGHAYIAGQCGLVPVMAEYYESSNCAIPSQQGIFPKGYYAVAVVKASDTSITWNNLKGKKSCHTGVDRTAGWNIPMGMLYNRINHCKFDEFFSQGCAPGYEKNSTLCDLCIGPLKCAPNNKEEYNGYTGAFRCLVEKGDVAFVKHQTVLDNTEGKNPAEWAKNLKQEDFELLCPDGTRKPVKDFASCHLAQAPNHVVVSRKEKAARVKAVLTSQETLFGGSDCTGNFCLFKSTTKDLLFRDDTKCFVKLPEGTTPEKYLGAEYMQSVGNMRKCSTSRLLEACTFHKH

For “house mouse (Mus musculus) TfR1, wild type, C-terminal FLAG (from UniProt Q62351) A296S; R569I; A575L”, the response (parent: est. 1100) stood at 910 m.f.i.
For “zygodont (Zygodontomys brevicauda) TfR1, wild type, C-terminal FLAG S296A; N569R; S575A”, the response (MDCK cells stably expressing TfR1-FLAG, incubated with media containing FITC-labeled iron-loaded mouse transferrin, three replicates, parent: est. 580) worked out at 590 m.f.i.
